# Data as given in article PMC4451147.
# B1: Human recombinant stathmin (natural protein)
# chain: MASSDIQVKELEKRASGQAFELILSPRSKESVPEFPLSPPKKKDLSLEEIQKKLEAAEERRKSHEAEVLKQLAEKREHEKEVLQKAIEENNNFSKMAEEKLTHKMEANKENREAQMAAKLERLREKDKHIEEVRKNKESKDPADETEAD
# Assays:
# [1] = molecular target: Tubulin purified from lamb brains (sheep (purified from lamb brains)); test: ITC; stathmin (syringe, 50-200 uM) injected into tubulin (cell, 5-20 uM); no MTA; 37°C; 20 mM NaPi, 4 mM MgCl2, 0.1 mM GTP, pH 6.5; one set of sites model; apparent constants
# [2] = molecular target: Tubulin purified from lamb brains (sheep (purified from lamb brains)); test: ITC; stathmin (syringe) injected into tubulin (cell); vinflunine (10 uM) in cell and syringe; 37°C; 20 mM NaPi, 4 mM MgCl2, 0.1 mM GTP, pH 6.5; one set of sites model; apparent constants
binder,measurement,setting,value
B1,Ka,[1],2.7e+06 M⁻¹
same,dH (kcal/mole of stathmin),[1],-7.5
same,Ka,[2],7.8e+06 M⁻¹
same,dH (kcal/mole of stathmin),[2],-30
